Patent US20230001013A1, “STABLE MONOMERIC INSULIN FORMULATIONS ENABLED BY SUPRAMOLECULAR PEGYLATION OF INSULIN ANALOGUES” (THE BOARD OF TRUSTEES OF THE LELAND STANFORD JUNIOR …, priority 2019, published 2023)
Blank lines part the entries; values can stand above or below the substance they belong to.

Legend:
[1] = target: N-terminal phenylalanine on insulin (Homo sapiens, UniProt P01308); experiment: Host-guest binding of CB[7]-PEG to insulin
Experimental: Referring to FIGS. 1A and 1B, existing insulin formulations contain a mixture of hexamers, dimers and monomers, which, upon subcutaneous injection, dissociate and are absorbed at different rates, shown diagrammatically in FIG. 1A. Non-covalent PEGylation is enabled by the strong specific binding between CB[7]-PEG and the N-terminal phenylalanine on insulin (KD=0.5 μM). Under high concentrations in formulation insulin will be greater than 98% bound, but after dilution upon subcutaneous injection less than 1% of CB[7]-PEG will remain associated with insulin. This differential absorption results in the rapid onset but long duration of action of these formulations, as indicated in the activity curve in FIG. 1B. […] The formulations described herein are directed to this objective.

[2] = Insulin association state by SEC-MALS; assay type: physicochemical; settings: for monomer / number average molecular weight (MW): zinc-free
Excerpt: Excipient choice is important, because as in the case of Apidra (glulisine), the absence of zinc is not sufficient to result in an ultra-fast acting insulin formulation. To engineer an insulin formulation that promotes the monomer state, the effects of excipients on insulin association state under zinc-free conditions must be understood. Characterization by size exclusion chromatography with multiple angle light scattering (SEC-MALS) allows us to determine insulin molecular weight in formulation and estimate the fraction of hexamers, dimers and monomers under formulation conditions. […] To select for a mostly monomeric insulin formulation, we evaluated the effect of tonicity agents and preservatives on insulin association state.
Number-averaged molecular weight (MW) and dispersity (Ð=Mw/Mn) of formulations were obtained using size exclusion chromatography (SEC) carried out using a Dionex Ultimate 3000 instrument (including pump, autosampler, and column compartment) outfitted with a Dawn Heleos II Multi Angle Ligh Scattering detector, and a Optilab rEX refractive index detector. The column was a Superose 6 Increase 10/300 GL from GE healthcare. Data was analyzed using Astra 6.0 software.
Controls consisted of either (v) commercial Humalog formulation comprising glycerol (1.6%), meta-cresol (0.315%), dibasic sodium phosphate (0.188%), and zinc (0.00197%), or (vi) commercial Novolog formulation comprising glycerol (1.6%), meta-cresol (0.172%), phenol (0.15%), sodium chloride (0.058%), dibasic sodium phosphate (0.125%), and zinc (0.00196%). Insulin lispro and aspart were injected at a concentration of a minimum […] protein and a volume of 100 μL. A do/dc of 0.186 mL/g was used for all samples.
The molar fraction of monomeric, dimeric and hexameric insulin was determined by fitting experimentally derived number-averaged (Mn) and weight-averaged (Mw) molecular weights determined by SEC-MALS to Equation 1 and Equation 2, where m, d and h, respectively, represent the molar fractions of monomeric, dimeric and hexameric insulin while I represents the molecular weight of monomeric insulin (5831 g/mol). The solver was constrained so that m+d+h=1 while m, d and h remain between 0 and 1.

[3] = reported previously; cited from earlier work
[4] = target: insulin aspart (Homo sapiens, UniProt P01308, P52D); experiment: Acridine orange dye displacement competitive binding assay; settings: unmodified CB[7], AO displacement, one-site competitive binding model; read-out: binding affinity
Experimental: Unmodified CB[7] was purchased from Strem Chemicals and Acridine Orange (AO) was purchased from Sigma-Aldrich. Binding of CB[7] to aspart was assessed using the AO dye displacement assay, as previously described. Briefly, 6 μM of CB[7] and 8 μM AO were combined with 100 μL of aspart samples. Aspart samples were diluted to concentrations of 0, 0.01, 0.1, 0.3, 0.5, 1, 1.5, 2, 3, 4 μm in H2O. Samples were incubated overnight in light-free conditions, and fluorescent spectra were collected on an BioTek SynergyH1 microplate reader, exciting at 485 nm and collecting the resulting fluorescent spectra from 495 to 650 nm. The decay in the peak of AO fluorescent signal was fit to a one-site competitive binding model (GraphPad Prism, version 6.0), using the CB[7]·AO equilibrium constant reported previously (Keq=2×10^5 M^−1), to determine binding constants of unmodified CB[7] to insulin.

[5] = phosphate buffer (pH=7.4), glycerol (2.6%)
[6] = phosphate buffer (pH=7.4), sodium chloride (0.9%)
[7] = phosphate buffer, glycerol (2.6%) and meta-cresol (0.315%)
[8] = phosphate buffer, glycerol (2.6%) and phenoxyethanol (0.85%)

Substance: cucurbit[7]uril-poly(ethylene glycol) [CB[7]-PEG]
Kd [1]: 500 nM | CB[7]-PEG remaining associated with insulin ([1]; after dilution following subcutaneous administration): less than 1% | fraction bound (CB[7]-PEG/insulin complex) ([1]; typical (high) formulation concentrations): greater than 98%

Substance: Zinc free insulin: zinc free insulin in pure water
association state ([2]; in pure water): completely monomeric

Substance: insulin aspart
monomer [2, 5]: 91.4% | number average molecular weight (MW) [2, 5]: 7.4 kDa | monomer [2, 6]: 4.8% | number average molecular weight (MW) [2, 6]: 13 kDa | monomer [2, 7]: 71.0% | number average molecular weight (MW) [2, 7]: 9.4 kDa | monomer [2, 8]: 85.2% | number average molecular weight (MW) [2, 8]: 7.4 kDa

Kd [4]: 540 nM
Substance: cucurbit[7]uril [CB[7]]
Keq [3]: 200000 M⁻¹

Substance: insulin lispro
monomer [2, 5]: 89.2% | number average molecular weight (MW) [2, 5]: 7.6 kDa | monomer [2, 6]: 55.0% | number average molecular weight (MW) [2, 6]: 8.7 kDa | monomer [2, 7]: 56.7% | number average molecular weight (MW) [2, 7]: 9.0 kDa | monomer [2, 8]: 71.5% | number average molecular weight (MW) [2, 8]: 8.2 kDa
